This assay deals with T1, Patched (Ptc) (Drosophila, UniProt P18502 1-1286).
T1 construct: whole, on cells; Endogenous protein in vivo
T1 sequence (looked up): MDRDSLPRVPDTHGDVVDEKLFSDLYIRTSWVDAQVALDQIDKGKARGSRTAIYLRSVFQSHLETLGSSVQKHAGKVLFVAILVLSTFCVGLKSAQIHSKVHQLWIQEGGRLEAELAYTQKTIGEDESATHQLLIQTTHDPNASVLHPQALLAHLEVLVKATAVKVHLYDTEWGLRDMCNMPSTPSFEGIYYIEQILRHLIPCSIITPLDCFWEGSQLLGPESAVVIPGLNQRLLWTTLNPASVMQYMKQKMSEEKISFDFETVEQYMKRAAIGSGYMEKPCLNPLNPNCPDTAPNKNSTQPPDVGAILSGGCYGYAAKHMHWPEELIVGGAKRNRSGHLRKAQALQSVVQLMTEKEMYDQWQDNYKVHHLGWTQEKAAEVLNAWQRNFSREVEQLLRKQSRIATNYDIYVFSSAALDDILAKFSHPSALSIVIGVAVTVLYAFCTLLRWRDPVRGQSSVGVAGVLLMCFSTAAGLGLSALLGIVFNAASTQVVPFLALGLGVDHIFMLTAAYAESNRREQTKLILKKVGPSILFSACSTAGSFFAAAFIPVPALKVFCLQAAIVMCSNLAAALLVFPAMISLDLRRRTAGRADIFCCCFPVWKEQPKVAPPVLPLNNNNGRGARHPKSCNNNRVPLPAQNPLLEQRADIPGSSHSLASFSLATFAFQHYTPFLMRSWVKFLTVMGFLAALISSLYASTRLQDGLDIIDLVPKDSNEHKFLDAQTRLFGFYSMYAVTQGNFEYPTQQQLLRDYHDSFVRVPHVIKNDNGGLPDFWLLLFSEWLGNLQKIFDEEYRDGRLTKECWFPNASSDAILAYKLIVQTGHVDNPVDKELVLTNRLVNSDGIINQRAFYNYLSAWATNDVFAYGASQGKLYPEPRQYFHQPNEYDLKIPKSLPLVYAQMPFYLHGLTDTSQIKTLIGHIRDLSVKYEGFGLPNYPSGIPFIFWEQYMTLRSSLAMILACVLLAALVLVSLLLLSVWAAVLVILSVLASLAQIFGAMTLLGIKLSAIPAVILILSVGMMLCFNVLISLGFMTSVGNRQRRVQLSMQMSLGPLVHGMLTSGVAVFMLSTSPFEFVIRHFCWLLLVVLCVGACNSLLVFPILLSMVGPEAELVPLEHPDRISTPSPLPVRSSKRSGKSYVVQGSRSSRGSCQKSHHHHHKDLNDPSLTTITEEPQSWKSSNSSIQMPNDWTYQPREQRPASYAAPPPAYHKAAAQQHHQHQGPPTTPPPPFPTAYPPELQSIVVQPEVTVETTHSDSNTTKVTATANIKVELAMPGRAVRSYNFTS
Briefly: in vivo immunostaining of wing imaginal discs (punctuate staining in anterior cells); hh-N^HA under en-Gal4 in hh ts2/ts2 animals at the non-permissive temperature. An excerpt:
Expression of Hh-Nu in P cells of the wing imaginal disc results in dpp-lacZ expression in the entire A compartment of the disc, and a consequent dramatic enlargement of the A compartment. Thus Hh-Nu appears to have a range of action at least five fold larger than that of wild-type Hh. However, since this and previous experiments have been performed in the presence of endogenous Hh, it could not be ruled out that the observed extension of Hh activity depends on, or is even mediated by, endogenous Hh-Np whose range might be expanded in the presence of Hh-Nu. To address this, we created a situation where Hh-Nu is the sole source of Hh in imaginal discs by expressing hh-N^HA in P cells under en-Ga14 in hh^{ts2/ts2} animals that were shifted to the non-permissive temperature during early larval stages. […] Thus Hh-Nu alone is able to associate with Ptc and signal in vivo. The cholesterol anchor of Hh appears to be required for the sequestration of Hh by Ptc, since untethered Hh is seemingly unrestricted in its range. We cannot currently rule out the possibility that Hh-Nu is also, at least partially, sequestered by Ptc but that extracellular Hh-Nu levels are abnormally high and saturate the capacity of Ptc.
hh-temperature sensitive animals were generated using the hh^ts2 allel (Ma et al., 1993) balanced over the TM6b[Tb]balancer. […]

B1: Hh-Nu (cholesterol-free N-terminal portion of Drosophila Hedgehog, product of the hh-N^HA transgene) (ligand, not shown: small tags and cut ends)
chain: not shown
modifications: no C-terminal cholesterol (cholesterol-free)
notes: Expressed in P cells of wing imaginal discs under en-Gal4 in hh ts2/ts2 animals; also called unmodified Hh-Nu; untethered Hh
B1: the binding result is reported as “binds”.

Values taken from patent US20030165897A1 (published 2003).
